Source: publication doi:10.1101/2021.02.07.430181

Legend:
Test in all cases: SAXS
[1] = target: TrK13-R539T (truncated and strep-tagged recombinant PfKelch13 with R539T) (P. falciparum 3D7)
[2] = target: TrK13-C580Y (truncated and strep-tagged recombinant PfKelch13 with C580Y) (P. falciparum 3D7)
[3] = target: TrK13-A578S (truncated and strep-tagged recombinant PfKelch13 with A578S) (P. falciparum 3D7)
[4] = target: TrK13-WT (truncated and strep-tagged recombinant PfKelch13, wild type) (P. falciparum 3D7)

Substance: TrK13-R539T (truncated and strep-tagged recombinant PfKelch13 with R539T) (domain or fragment)
- stoichiometry N [1]: 6

Substance: TrK13-C580Y (truncated and strep-tagged recombinant PfKelch13 with C580Y) (domain or fragment)
- stoichiometry N [2]: 6

Substance: TrK13-A578S (truncated and strep-tagged recombinant PfKelch13 with A578S) (domain or fragment)
- stoichiometry N [3]: 6

Substance: TrK13-WT (truncated and strep-tagged recombinant PfKelch13, wild type) (domain or fragment)
- stoichiometry N [4]: 6
